Measured values published in publication PMC5084695 (Biochemistry, 2016).

Biological target: the molecule itself
Assay: SEC-MALS

B1: SbnA (wild type, Staphylococcus aureus strain Newman) (enzyme, UniProt A6QDA0 1-326, looked up)
chain: MIEKSQACHDSLLDSVGQTPMVQLHQLFPKHEVFAKLEYMNPGGSMKDRPAKYIIEHGIKHGLITENTHLIESTSGNLGIALAMIAKIKGLKLTCVVDPKISPTNLKIIKSYGANVEMVEEPDAHGGYLMTRIAKVQELLATIDDAYWINQYANELNWQSHYHGAGTEIVETIKQPIDYFVAPVSTTGSIMGMSRKIKEVHPNAQIVAVDAKGSVIFGDKPINRELPGIGASRVPEILNRSEINQVIHVDDYQSALGCRKLIDYEGIFAGGSTGSIIAAIEQLITSIEEGATIVTILPDRGDRYLDLVYSDTWLEKMKSRQGVKSE
modifications: PLP (pyridoxal 5'-phosphate) covalently bound to Lys47 by an internal Schiff base (as isolated)
  stoichiometry N: 2
